The target in experiment [1] is 3-deoxy-D-arabino-heptulosonate 7-phosphate synthase from Aeropyrum pernix (Aeropyrum pernix). In words: SEC.
For experiment [2], the target named is DAH7PS^Ap (DAHPS^Ap; 3-deoxy-D-arabino-heptulosonate 7-phosphate synthase) (Aeropyrum pernix, UniProt Q9YEJ7). Description: initial rates, discontinuous periodate-thiobarbituric acid. The class given is biochemical. Particulars: read-out: apparent Km; 3 mM PEP (saturating), pH 7.0, 60 °C; enzyme as isolated (Zn).

As a reminder, the stoichiometry N is the number of molecules, sites or subunits per partner or assembly. In general, Km refers to the concentration of substrate that gives half-maximal velocity.

The compound “3-deoxy-D-arabino-heptulosonate 7-phosphate synthase from Aeropyrum pernix (enzyme)” returned a stoichiometry N in experiment [1] of 2.

Turning to `O=C[C@H](O)[C@H](O)COP(=O)(O)O` [E4P], the Michaelis-Menten constant (Km) in experiment [2] was determined as 280 ± 20 µM.

Values taken from PMC3260417 (Bioorganic Chemistry, 2011).
